Target: anti-EGFR activatable antibodies comprising substrates 2001, 2006-2010 and 2012

B1: human matriptase (protein)
chain: VVGGTDADEGEWPWQVSLHALGQGHICGASLISPNWLVSAAHCYIDDRGFRYSDPTQWTAFLGLHDQSQRSAPGVQERRLKRIISHPFFNDFTFDYDIALLELEKPAEYSSMVRPICLPDASHVFPAGKAIWVTGWGHTQYGGTGALILQKGEIRVINQTTCENLLPQQITPRMMCVGFLSGGVDSCQGDSGGPLSSVEADGRIFQAGVVSWGDGCAQRNKPGVYTRLPLFRDWIKENTGV
B1 was tested, and the kcat/Km was “a range of kcat/Km values ranging from 6E+02 to 2E+04”.

Reference: patent publication US20210355208
